Test results reported in patent WO2018215614A1 (dated 2018).

Molecular target: T1, mouse Gpa33 in which human Exon III had been substituted (mouse; human, UniProt Q9JKA5 22-70; Q99795 71-139; Q9JKA5 140-319, limits assumed)
T1 sequence (looked up): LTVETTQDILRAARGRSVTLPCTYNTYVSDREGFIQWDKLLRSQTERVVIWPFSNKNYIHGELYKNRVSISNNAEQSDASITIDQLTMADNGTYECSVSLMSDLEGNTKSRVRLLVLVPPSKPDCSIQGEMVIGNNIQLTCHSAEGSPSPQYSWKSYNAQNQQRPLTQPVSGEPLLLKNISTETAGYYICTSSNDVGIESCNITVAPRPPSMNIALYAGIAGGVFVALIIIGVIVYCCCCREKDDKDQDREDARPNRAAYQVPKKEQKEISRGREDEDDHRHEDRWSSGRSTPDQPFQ
Experiment: cell-based or functional assay

B1: anti-hGpa33/Rspo4 fusion protein (antibody, human IgG1, kappa)
heavy: EVQLLESGGGLVQPGGSLRLSCAASGFAFSTYDMSWVRQAPGKGLEWVATISSGGSYTYYLDSVKGRFTISRDSSKNTLYLQMNSLQAEDSAIYYCAPTTVVPFAYWGQGTLVTVSSASTKGPSVFPLAPSSKSTSGGTAALGCLVKDYFPEPVTVSWNSGALTSGVHTFPAVLQSSGLYSLSSVVTVPSSSLGTQTYICNVNHKPSNTKVDKKVEPKSCDKTHTCPPCPAPELLGGPSVFLFPPKPKDTLMISRTPEVTCVVVDVSHEDPEVKFNWYVDGVEVHNAKTKPREQYNSTYRVVSVLPVLHQDWLNGKEYKCKVSNKALPAPIEKTISKAKGQPREPQVYTLPPSREEMTKNQVSLTCLVKGFYPSDIAVEWESNGQPENNYKTTPPVLDSDGSFFLYSKLTVDKSRWQQGNVFSCSVMHEALHYHYTQKSLSLSPGKEAAAREAAAREAAAREAAARVGTGLGGNCTGCIICSEENGCSTCQQRLFLFIRREGIRQYGKCLHDCPPGYFGIRGQEVNRCKKCGATCESCFSQDFCIRCKRQFYLYKGKCLPTCPPGTLAHQNTRECQGE
light: DIQMTQSPSSLSVSVGDRVTITCKASQNVRTVVAWYQQKPGLAPKTLIYLASNRHTGVPSRFSGSGSGTDFTFTISSLQPEDIATYFCQQHWSYPLTFGQGTKVEVKRRTVAAPSVFIFPPSDEQLKSGTASVVCLLNNFYPREAKVQWKVDNALQSGNSQESVTEQDSKDSTYSLSSTLTLSKADYEKHKVYACEVTHQGLSSPVTKSFNRGEC
Question: Which “difference in cell viability (ATP-driven luciferase cell viability assay), humanized Gpa33 organoids against wildtype organoids, at 0.2 nM fusion protein” value does the source give for B1 here?
Answer: 200 fold

Question: And the “difference in cell viability (ATP-driven luciferase cell viability assay), humanized Gpa33 organoids against wildtype organoids, at 0.4 nM fusion protein” value?
Answer: 25 fold
